Measurements reported in paper PMC10404369, “Epithelial cell adhesion molecule (EpCAM) regulates HGFR signaling to promote colon cancer progression and metastasis” (Journal of Translational Medicine, 2023).

Key:
[1] = molecular target: T1, HGFRECD-His recombinant protein (human, UniProt P08581 25-932); assay: ELISA; HGFR-His recombinant protein (2 μg/ml) added to plates coated with EGF-like-domain deletion mutant-Fc (1 μg/ml); TMB colorimetric peroxidase assay; settings: both partners purified
T1 construct: human HGFR (c-MET) recombinant protein, extracellular domain; also called HGFR-His; HGFR-His recombinant protein; source: bought: Sino Biological

[2] = molecular target: T1, HGFRECD-His recombinant protein; assay: pull-down; EpEX-Fc and HGFR-His recombinant protein (2.5 μg/ml); IP with Dynabeads Protein G, Western blotting with anti-6× His tag antibody; settings: both partners purified

T1 sequence (P08581 25-932): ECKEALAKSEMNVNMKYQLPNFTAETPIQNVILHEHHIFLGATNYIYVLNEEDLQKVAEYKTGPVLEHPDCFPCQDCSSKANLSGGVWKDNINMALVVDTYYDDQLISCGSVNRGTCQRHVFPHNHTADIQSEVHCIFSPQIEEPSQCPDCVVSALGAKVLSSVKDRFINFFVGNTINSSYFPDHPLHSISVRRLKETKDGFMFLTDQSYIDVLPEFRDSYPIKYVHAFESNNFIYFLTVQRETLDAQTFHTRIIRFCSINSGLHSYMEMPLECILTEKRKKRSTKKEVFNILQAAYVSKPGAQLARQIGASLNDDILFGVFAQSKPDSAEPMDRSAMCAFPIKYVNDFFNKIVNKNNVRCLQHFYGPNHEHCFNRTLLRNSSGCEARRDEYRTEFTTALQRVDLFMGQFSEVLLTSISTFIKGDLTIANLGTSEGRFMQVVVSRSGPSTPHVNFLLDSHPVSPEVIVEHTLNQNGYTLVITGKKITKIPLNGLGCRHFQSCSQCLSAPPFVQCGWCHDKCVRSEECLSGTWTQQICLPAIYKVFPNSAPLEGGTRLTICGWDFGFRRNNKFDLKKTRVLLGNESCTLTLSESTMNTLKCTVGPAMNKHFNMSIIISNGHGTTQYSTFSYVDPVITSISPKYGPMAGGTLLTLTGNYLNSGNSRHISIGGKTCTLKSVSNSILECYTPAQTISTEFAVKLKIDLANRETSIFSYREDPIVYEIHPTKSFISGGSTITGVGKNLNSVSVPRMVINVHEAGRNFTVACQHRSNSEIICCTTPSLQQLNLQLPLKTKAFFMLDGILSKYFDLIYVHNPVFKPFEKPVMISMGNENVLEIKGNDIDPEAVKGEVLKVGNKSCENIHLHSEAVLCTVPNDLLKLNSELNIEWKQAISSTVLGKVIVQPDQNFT

Binder	binding result [1]	binding result [2]
EpEX_(ΔEGFI)-Fc (Fc fusion, human, UniProt P16422 24-265, looked up, EpEX, extracellular domain of EpCAM, with EGF-like domain I (amino acids 27–59) deleted; also called EGF-like-domain deletion mutant-Fc) QEESKLAAKCLVMKAEMNGSKLGRRAKPEGALQNNDGLYDPDCDESGLFKAKQCNGTSMCWCVNTAGVRRTDKDTEITCSERVRTYWIIIELKHKAREKPYDSKSLRTALQKEITTRYQLDPKFITSILYENNVITIDLVQNSSQKTQNDVDIADVAYYFEKDVKGESLFHSKKMDLTVNGEQLDLDPGQTLIYYVDEKAPEFSMQGLK	binds	
EpEX_(ΔEGFII)-Fc (Fc fusion, human, UniProt P16422 24-265, looked up, EpEX, extracellular domain of EpCAM, with EGF-like domain II (amino acids 66–135) deleted; also called EGF-like-domain deletion mutant-Fc) QEECVCENYKLAVNCFVNNNRQCQCTSVGAQNTVICSKLAAKSERVRTYWIIIELKHKAREKPYDSKSLRTALQKEITTRYQLDPKFITSILYENNVITIDLVQNSSQKTQNDVDIADVAYYFEKDVKGESLFHSKKMDLTVNGEQLDLDPGQTLIYYVDEKAPEFSMQGLK	binds	
EpEX-Fc recombinant protein (Fc fusion, human, UniProt P16422 24-265, looked up, also called recombinant EpEX-Fc) QEECVCENYKLAVNCFVNNNRQCQCTSVGAQNTVICSKLAAKCLVMKAEMNGSKLGRRAKPEGALQNNDGLYDPDCDESGLFKAKQCNGTSMCWCVNTAGVRRTDKDTEITCSERVRTYWIIIELKHKAREKPYDSKSLRTALQKEITTRYQLDPKFITSILYENNVITIDLVQNSSQKTQNDVDIADVAYYFEKDVKGESLFHSKKMDLTVNGEQLDLDPGQTLIYYVDEKAPEFSMQGLK		binds
